Laboratory results published in PMC11514452, “Stochastic nature and physiological implications of 5′-NAD RNA cap in bacteria” (Nucleic Acids Research, 2024).

Experiments:
NudC = target: T1, NudC (Escherichia coli, UniProt P32664); assay: NAD-RNA de-capping in vitro, gel read-out, ppGpp titration; type: biochemical; details: read-out: inhibition constant
T1 construct: homodimer by known biology
T1 sequence (P32664 1-257): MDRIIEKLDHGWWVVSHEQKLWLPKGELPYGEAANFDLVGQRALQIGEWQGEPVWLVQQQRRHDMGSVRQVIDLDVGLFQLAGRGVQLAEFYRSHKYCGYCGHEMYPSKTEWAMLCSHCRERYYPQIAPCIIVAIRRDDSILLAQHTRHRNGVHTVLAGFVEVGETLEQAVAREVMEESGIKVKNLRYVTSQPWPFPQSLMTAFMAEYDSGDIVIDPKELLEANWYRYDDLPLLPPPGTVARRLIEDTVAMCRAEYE

70S ribosome [1] = assay: footprinting (RelE printing, ribosome titration); details: tRNAfMet, RelE toxin, 10 mM Tris-HCl pH 7.4, 60 mM NH4Cl, RelE assay also 6 mM beta-mercaptoethanol, 37 C 10 min, BLI temperature not stated
70S ribosome [2] = assay: BLI; details: tRNAfMet (2-fold molar excess), 10 mM Tris-HCl pH 7.4, 60 mM NH4Cl, RelE assay also 6 mM beta-mercaptoethanol, 37 C 10 min, BLI temperature not stated
[3] = 10 mM Mg(OAc)2, 5'-NAD (first A replaced by NAD, start codon NAD-UG)
[4] = 10 mM Mg(OAc)2, 5'-triphosphate

Compound: Nc1nc2c(ncn2[C@@H]2O[C@H](COP(=O)(O)OP(=O)(O)O)[C@@H](OP(=O)(O)OP(=O)(O)O)[C@H]2O)c(=O)[nH]1 [ppGpp]
- Ki (NudC): ~70000 nM

Compound: AUGAGCACAAAAAAGAAACCAUUAACACAAGAGCAGCUUGAGGACGCACGUCGCCUUAAAGCAAUUUAUG [NAD-cI(1-70) leaderless mRNA]
- K half (70S ribosome [1]; [3]): 4.3 nM
- Kd (70S ribosome [2]; [3]): 4.3 nM

Compound: AUGAGCACAAAAAAGAAACCAUUAACACAAGAGCAGCUUGAGGACGCACGUCGCCUUAAAGCAAUUUAUG [ppp-cI(1-70) leaderless mRNA]
- K half (70S ribosome [1]; [4]): 3.8 nM
- Kd (70S ribosome [2]; [4]): 3.5 nM
